Experimental data: IntAct's records for PubMed 31515488

B1: Pleckstrin homology domain-containing family N member 1 (Homo sapiens), Q494U1 (parent)
chain: MGNSHCVPQAPRRLRASFSRKPSLKGNREDSARMSAGLPGPEAARSGDAAANKLFHYIPGTDILDLENQRENLEQPFLSVFKKGRRRVPVRNLGKVVHYAKVQLRFQHSQDVSDCYLELFPAHLYFQAHGSEGLTFQGLLPLTELSVCPLEGSREHAFQITGPLPAPLLVLCPSRAELDRWLYHLEKQTALLGGPRRCHSAPPQRRLTRLRTASGHEPGGSAVCASRVKLQHLPAQEQWDRLLVLYPTSLAIFSEELDGLCFKGELPLRAVHINLEEKEKQIRSFLIEGPLINTIRVVCASYEDYGHWLLCLRAVTHREGAPPLPGAESFPGSQVMGSGRGSLSSGGQTSWDSGCLAPPSTRTSHSLPESSVPSTVGCSSQHTPDQANSDRASIGRRRTELRRSGSSRSPGSKARAEGRGPVTPLHLDLTQLHRLSLESSPDAPDHTSETSHSPLYADPYTPPATSHRRVTDVRGLEEFLSAMQSARGPTPSSPLPSVPVSVPASDPRSCSSGPAGPYLLSKKGALQSRAAQRHRGSAKDGGPQPPDAPQLVSSAREGSPEPWLPLTDGRSPRRSRDPGYDHLWDETLSSSHQKCPQLGGPEASGGLVQWI
partner: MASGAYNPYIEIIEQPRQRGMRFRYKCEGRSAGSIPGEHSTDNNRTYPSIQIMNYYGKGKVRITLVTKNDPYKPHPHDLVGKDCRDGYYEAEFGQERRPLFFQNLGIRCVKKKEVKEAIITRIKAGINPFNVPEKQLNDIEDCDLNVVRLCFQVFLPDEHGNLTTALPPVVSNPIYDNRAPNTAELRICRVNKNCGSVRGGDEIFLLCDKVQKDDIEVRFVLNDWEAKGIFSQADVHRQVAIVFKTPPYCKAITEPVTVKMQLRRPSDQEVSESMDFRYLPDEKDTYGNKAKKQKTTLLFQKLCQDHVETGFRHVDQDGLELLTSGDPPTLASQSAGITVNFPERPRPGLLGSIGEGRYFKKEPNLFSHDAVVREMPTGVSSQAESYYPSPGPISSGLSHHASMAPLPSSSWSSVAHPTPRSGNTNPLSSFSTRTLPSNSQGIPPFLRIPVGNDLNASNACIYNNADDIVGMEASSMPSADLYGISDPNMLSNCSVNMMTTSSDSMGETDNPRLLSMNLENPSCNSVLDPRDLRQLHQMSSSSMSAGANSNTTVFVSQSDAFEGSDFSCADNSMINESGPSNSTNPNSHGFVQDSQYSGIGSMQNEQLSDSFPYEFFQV
B2: Pleckstrin homology domain-containing family N member 1 (Homo sapiens), Q494U1 (parent)
chain: B1 chain
B3: Tuftelin-interacting protein 11 (Homo sapiens), Q9UBB9 (parent)
chain: MSLSHLYRDGEGRIDDDDDERENFEITDWDLQNEFNPNRQRHWQTKEEATYGVWAERDSDDERPSFGGKRARDYSAPVNFISAGLKKGAAEEAELEDSDDEEKPVKQDDFPKDFGPRKLKTGGNFKPSQKGFAGGTKSFMDFGSWERHTKGIGQKLLQKMGYVPGRGLGKNAQGIINPIEAKQRKGKGAVGAYGSERTTQSMQDFPVVDSEEEAEEEFQKELSQWRKDPSGSKKKPKYSYKTVEELKAKGRISKKLTAPQKELSQVKVIDMTGREQKVYYSYSQISHKHNVPDDGLPLQSQQLPQSGKEAKAPGFALPELEHNLQLLIDLTEQEIIQNDRQLQYERDMVVNLFHELEKMTEVLDHEERVISNLSKVLEMVEECERRMQPDCSNPLTLDECARIFETLQDKYYEEYRMSDRVDLAVAIVYPLMKEYFKEWDPLKDCTYGTEIISKWKSLLENDQLLSHGGQDLSADAFHRLIWEVWMPFVRNIVTQWQPRNCDPMVDFLDSWVHIIPVWILDNILDQLIFPKLQKEVENWNPLTDTVPIHSWIHPWLPLMQARLEPLYSPIRSKLSSALQKWHPSDSSAKLILQPWKDVFTPGSWEAFMVKNIVPKLGMCLGELVINPHQQHMDAFYWVIDWEGMISVSSLVGLLEKHFFPKWLQVLCSWLSNSPNYEEITKWYLGWKSMFSDQVLAHPSVKDKFNEALDIMNRAVSSNVGAYMQPGARENIAYLTHTERRKDFQYEAMQERREAENMAQRGIGVAASSVPMNFKDLIETKAEEHNIVFMPVIGKRHEGKQLYTFGRIVIYIDRGVVFVQGEKTWVPTSLQSLIDMAK
partner: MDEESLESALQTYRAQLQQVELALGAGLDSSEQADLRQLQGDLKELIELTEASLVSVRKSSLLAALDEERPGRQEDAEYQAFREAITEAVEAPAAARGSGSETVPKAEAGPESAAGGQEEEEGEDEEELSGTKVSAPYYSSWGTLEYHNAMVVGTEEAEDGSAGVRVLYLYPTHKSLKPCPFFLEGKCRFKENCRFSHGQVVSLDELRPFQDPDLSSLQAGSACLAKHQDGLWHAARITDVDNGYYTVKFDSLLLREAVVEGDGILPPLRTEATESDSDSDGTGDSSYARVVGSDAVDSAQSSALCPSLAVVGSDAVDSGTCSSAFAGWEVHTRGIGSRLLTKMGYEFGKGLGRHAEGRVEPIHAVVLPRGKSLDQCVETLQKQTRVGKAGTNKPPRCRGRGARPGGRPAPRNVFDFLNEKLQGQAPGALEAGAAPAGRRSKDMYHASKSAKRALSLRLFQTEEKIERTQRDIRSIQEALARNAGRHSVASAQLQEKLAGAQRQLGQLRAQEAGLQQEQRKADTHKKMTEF
B4: EF-hand domain-containing protein 1 (Homo sapiens), Q5JVL4 (parent)
chain: MVSNPVHGLPFLPGTSFKDSTKTAFHRSQTLSYRNGYAIVRRPTVGIGGDRLQFNQLSQAELDELASKAPVLTYGQPKQAPPADFIPAHVAFDKKVLKFDAYFQEDVPMSTEEQYRIRQVNIYYYLEDDSMSVIEPVVENSGILQGKLIKRQRLAKNDRGDHYHWKDLNRGINITIYGKTFRVVDCDQFTQVFLESQGIELNPPEKMALDPYTELRKQPLRKYVTPSDFDQLKQFLTFDKQVLRFYAIWDDTDSMYGECRTYIIHYYLMDDTVEIREVHERNDGRDPFPLLMNRQRVPKVLVENAKNFPQCVLEISDQEVLEWYTAKDFIVGKSLTILGRTFFIYDCDPFTRRYYKEKFGITDLPRIDVSKREPPPVKQELPPYNGFGLVEDSAQNCFALIPKAPKKDVIKMLVNDNKVLRYLAVLESPIPEDKDRRFVFSYFLATDMISIFEPPVRNSGIIGGKYLGRTKVVKPYSTVDNPVYYGPSDFFIGAVIEVFGHRFIILDTDEYVLKYMESNAAQYSPEALASIQNHVRKREAPAPEAESKQTEKDPGVQELEALIDTIQKQLKDHSCKDNIREAFQIYDKEASGYVDRDMFFKICESLNVPVDDSLVKELIRMCSHGEGKINYYNFVRAFSN
B5: Syntenin-2 (Homo sapiens), Q9H190 (parent)
chain: MSSLYPSLEDLKVDQAIQAQVRASPKMPALPVQATAISPPPVLYPNLAELENYMGLSLSSQEVQESLLQIPEGDSTAVSGPGPGQMVAPVTGYSLGVRRAEIKPGVREIHLCKDERGKTGLRLRKVDQGLFVQLVQANTPASLVGLRFGDQLLQIDGRDCAGWSSHKAHQVVKKASGDKIVVVVRDRPFQRTVTMHKDSMGHVGFVIKKGKIVSLVKGSSAARNGLLTNHYVCEVDGQNVIGLKDKKIMEILATAGNVVTLTIIPSVIYEHMVKKLPPVLLHHTMDHSIPDA

Variants of: B1
Conditions: with rel_human REL

| Variant | effect of a mutation on the interaction |
| --- | --- |
| R487P | with no effect |

Variants of: B2
Conditions: with itf2_human TCF4, P15884
Target sequence in this assay (P15884 whole entry): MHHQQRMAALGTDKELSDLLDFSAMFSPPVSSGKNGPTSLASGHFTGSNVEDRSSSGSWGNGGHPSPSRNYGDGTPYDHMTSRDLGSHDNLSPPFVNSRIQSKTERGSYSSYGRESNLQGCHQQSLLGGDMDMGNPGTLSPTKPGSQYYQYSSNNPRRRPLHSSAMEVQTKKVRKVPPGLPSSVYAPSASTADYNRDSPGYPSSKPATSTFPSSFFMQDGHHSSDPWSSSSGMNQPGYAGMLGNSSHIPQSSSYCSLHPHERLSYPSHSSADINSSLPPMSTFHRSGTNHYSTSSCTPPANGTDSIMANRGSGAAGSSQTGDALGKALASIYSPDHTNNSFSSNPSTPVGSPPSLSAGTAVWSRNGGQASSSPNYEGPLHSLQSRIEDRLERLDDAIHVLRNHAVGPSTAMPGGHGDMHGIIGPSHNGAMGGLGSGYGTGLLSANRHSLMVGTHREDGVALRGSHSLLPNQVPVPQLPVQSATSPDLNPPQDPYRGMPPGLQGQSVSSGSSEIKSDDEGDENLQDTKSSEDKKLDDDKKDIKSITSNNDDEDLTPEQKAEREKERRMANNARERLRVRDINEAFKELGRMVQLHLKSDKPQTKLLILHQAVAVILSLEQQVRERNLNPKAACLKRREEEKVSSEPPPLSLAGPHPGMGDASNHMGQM

| Variant | effect of a mutation on the interaction |
| --- | --- |
| R487P | with no effect |

Variants of: B2
Conditions: with traf1_human TRAF1, Q13077
traf1_human TRAF1, Q13077, sequence (Q13077 whole entry): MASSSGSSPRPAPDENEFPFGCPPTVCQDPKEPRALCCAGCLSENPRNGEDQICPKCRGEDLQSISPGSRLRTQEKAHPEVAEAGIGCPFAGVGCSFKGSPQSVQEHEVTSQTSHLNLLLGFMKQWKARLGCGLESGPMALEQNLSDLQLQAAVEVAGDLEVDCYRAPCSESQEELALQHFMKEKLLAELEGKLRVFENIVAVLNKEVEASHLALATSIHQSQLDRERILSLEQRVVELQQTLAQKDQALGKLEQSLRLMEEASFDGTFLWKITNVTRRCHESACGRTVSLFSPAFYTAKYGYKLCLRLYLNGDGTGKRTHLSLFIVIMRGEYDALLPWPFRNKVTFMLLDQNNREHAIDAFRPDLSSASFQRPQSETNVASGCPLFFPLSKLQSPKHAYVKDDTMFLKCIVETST

| Variant | effect of a mutation on the interaction |
| --- | --- |
| R487P | with no effect |

Variants of: B2
Conditions: with taxb1_human TAX1BP1, Q86VP1
taxb1_human TAX1BP1, Q86VP1, sequence (Q86VP1 whole entry): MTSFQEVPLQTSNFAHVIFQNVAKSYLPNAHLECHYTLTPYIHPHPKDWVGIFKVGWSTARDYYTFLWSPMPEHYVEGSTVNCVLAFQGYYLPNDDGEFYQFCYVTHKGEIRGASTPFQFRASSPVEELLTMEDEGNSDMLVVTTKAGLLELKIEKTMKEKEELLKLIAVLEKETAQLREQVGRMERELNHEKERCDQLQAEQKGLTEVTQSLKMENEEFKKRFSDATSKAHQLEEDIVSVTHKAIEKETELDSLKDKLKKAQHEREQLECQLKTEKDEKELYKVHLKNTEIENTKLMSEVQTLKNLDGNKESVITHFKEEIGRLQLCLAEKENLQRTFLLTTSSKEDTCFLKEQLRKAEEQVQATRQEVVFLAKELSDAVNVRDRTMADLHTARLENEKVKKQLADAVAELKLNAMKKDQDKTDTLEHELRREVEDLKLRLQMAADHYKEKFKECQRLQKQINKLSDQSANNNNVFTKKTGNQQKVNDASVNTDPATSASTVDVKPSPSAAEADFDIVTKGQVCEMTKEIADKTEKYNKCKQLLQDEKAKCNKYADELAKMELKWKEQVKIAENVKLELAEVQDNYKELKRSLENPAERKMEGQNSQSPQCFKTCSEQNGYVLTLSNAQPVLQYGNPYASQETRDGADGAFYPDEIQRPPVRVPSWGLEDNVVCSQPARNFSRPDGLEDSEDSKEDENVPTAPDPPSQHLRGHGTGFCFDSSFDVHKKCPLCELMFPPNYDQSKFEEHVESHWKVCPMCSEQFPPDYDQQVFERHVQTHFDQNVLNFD

| Variant | effect of a mutation on the interaction |
| --- | --- |
| R487P | with no effect |

Variants of: B3
Conditions: with zgpat_human ZGPAT

| Variant | effect of a mutation on the interaction |
| --- | --- |
| R8Q | with no effect |
| S688L | with no effect |

Variants of: B4
Conditions: with itf2_human TCF4, P15884
Target sequence in this assay (P15884 whole entry): as the sequence (P15884 whole entry) above

| Variant | effect of a mutation on the interaction |
| --- | --- |
| Y102C | with no effect |
| R159W | with no effect |
| F229L | with no effect |

Variants of: B4
Conditions: with ikzf3_human IKZF3, Q9UKT9
ikzf3_human IKZF3, Q9UKT9, sequence (Q9UKT9 whole entry): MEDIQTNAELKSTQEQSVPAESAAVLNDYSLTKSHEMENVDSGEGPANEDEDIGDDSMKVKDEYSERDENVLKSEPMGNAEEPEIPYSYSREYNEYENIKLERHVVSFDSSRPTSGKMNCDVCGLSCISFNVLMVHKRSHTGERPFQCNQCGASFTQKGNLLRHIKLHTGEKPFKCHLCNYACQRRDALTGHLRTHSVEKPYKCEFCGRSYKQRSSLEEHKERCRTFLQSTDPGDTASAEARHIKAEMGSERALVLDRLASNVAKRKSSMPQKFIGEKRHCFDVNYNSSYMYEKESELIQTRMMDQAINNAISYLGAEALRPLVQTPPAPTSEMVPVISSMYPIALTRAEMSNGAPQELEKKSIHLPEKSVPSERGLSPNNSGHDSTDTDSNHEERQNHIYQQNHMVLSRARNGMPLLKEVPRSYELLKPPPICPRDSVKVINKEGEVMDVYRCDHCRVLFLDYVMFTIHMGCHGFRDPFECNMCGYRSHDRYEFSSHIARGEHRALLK

| Variant | effect of a mutation on the interaction |
| --- | --- |
| Y102C | with no effect |
| R159W | with no effect |
| F229L | with no effect |

Variants of: B5
Conditions: with zch10_human ZCCHC10, Q8TBK6
zch10_human ZCCHC10, Q8TBK6, sequence (Q8TBK6 whole entry): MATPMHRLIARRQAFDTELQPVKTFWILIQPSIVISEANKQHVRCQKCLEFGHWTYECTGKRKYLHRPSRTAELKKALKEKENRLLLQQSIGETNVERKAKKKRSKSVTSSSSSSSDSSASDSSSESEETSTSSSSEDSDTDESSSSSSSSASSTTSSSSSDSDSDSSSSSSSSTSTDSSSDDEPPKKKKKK

| Variant | effect of a mutation on the interaction |
| --- | --- |
| MSSLYPSLEDLKVDQAIQAQVRASPKMPALPVQATAISPPPVLYPNLAELENYMGLSLSSQEVQESLLQIPEGDSTAVSGPGPGQMVAPVTGYSLGVRRAEIKPGVREIHLCKDERGKTGLRLRKVDQGLFVQLVQANTPASLVGLRFGDQLLQIDGRDCAGWSSHKAHQVVKKASGDKIVMVVRDRPFQRTVTMHKDSMGHVGFVIKKGKIVSLVKGSSAARNGLLTNHYVCEVDGQNVIGLKDKKIMEILATAGNVVTLTIIPSVIYEHMVKKLPPVLLHHTMDHSIPDA [V182M] | with no effect |

Variants of: B5
Conditions: with t23o_human TDO2, P48775
t23o_human TDO2, P48775, sequence (P48775 whole entry, looked up): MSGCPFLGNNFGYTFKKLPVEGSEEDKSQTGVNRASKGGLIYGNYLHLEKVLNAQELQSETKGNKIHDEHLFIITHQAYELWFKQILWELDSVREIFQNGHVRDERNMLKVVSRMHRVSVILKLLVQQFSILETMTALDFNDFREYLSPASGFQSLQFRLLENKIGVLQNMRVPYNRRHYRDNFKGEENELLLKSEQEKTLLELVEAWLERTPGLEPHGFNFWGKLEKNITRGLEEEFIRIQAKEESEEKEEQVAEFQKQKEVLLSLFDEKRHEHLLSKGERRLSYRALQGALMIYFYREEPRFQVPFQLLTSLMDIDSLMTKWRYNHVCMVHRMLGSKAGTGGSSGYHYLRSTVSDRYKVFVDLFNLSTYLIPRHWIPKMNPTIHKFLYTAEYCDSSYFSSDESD

| Variant | effect of a mutation on the interaction |
| --- | --- |
| MSSLYPSLEDLKVDQAIQAQVRASPKMPALPVQATAISPPPVLYPNLAELENYMGLSLSSQEVQESLLQIPEGDSTAVSGPGPGQMVAPVTGYSLGVRRAEIKPGVREIHLCKDERGKTGLRLRKVDQGLFVQLVQANTPASLVGLRFGDQLLQIDGRDCAGWSSHKAHQVVKKASGDKIVMVVRDRPFQRTVTMHKDSMGHVGFVIKKGKIVSLVKGSSAARNGLLTNHYVCEVDGQNVIGLKDKKIMEILATAGNVVTLTIIPSVIYEHMVKKLPPVLLHHTMDHSIPDA [V182M] | with no effect |

Variants of: B5
Conditions: with lyar_human LYAR

| Variant | effect of a mutation on the interaction |
| --- | --- |
| MSSLYPSLEDLKVDQAIQAQVRASPKMPALPVQATAISPPPVLYPNLAELENYMGLSLSSQEVQESLLQIPEGDSTAVSGPGPGQMVAPVTGYSLGVRRAEIKPGVREIHLCKDERGKTGLRLRKVDQGLFVQLVQANTPASLVGLRFGDQLLQIDGRDCAGWSSHKAHQVVKKASGDKIVMVVRDRPFQRTVTMHKDSMGHVGFVIKKGKIVSLVKGSSAARNGLLTNHYVCEVDGQNVIGLKDKKIMEILATAGNVVTLTIIPSVIYEHMVKKLPPVLLHHTMDHSIPDA [V182M] | with no effect |

Variants of: B5
Conditions: with ytdc1_human YTHDC1, Q96MU7

| Variant | effect of a mutation on the interaction |
| --- | --- |
| MSSLYPSLEDLKVDQAIQAQVRASPKMPALPVQATAISPPPVLYPNLAELENYMGLSLSSQEVQESLLQIPEGDSTAVSGPGPGQMVAPVTGYSLGVRRAEIKPGVREIHLCKDERGKTGLRLRKVDQGLFVQLVQANTPASLVGLRFGDQLLQIDGRDCAGWSSHKAHQVVKKASGDKIVMVVRDRPFQRTVTMHKDSMGHVGFVIKKGKIVSLVKGSSAARNGLLTNHYVCEVDGQNVIGLKDKKIMEILATAGNVVTLTIIPSVIYEHMVKKLPPVLLHHTMDHSIPDA [V182M] | disrupting interaction strength |

Variants of: B5
Conditions: with FAM133A

| Variant | effect of a mutation on the interaction |
| --- | --- |
| MSSLYPSLEDLKVDQAIQAQVRASPKMPALPVQATAISPPPVLYPNLAELENYMGLSLSSQEVQESLLQIPEGDSTAVSGPGPGQMVAPVTGYSLGVRRAEIKPGVREIHLCKDERGKTGLRLRKVDQGLFVQLVQANTPASLVGLRFGDQLLQIDGRDCAGWSSHKAHQVVKKASGDKIVMVVRDRPFQRTVTMHKDSMGHVGFVIKKGKIVSLVKGSSAARNGLLTNHYVCEVDGQNVIGLKDKKIMEILATAGNVVTLTIIPSVIYEHMVKKLPPVLLHHTMDHSIPDA [V182M] | with no effect |
